# Results: patent US20220411529A1 (Genmab, published 2022)
# Changes are numbered by the printed parent chain. In names and notes the source's numbering stands.
# B1: IgG2-11B8-E345R-S440K (antibody)
# heavy: EVQLVQSGGGLVHPGGSLRLSCTGSGFTFSYHAMHWVRQAPGKGLEWVSIIGTGGVTYYADSVKGRFTISRDNVKNSLYLQMNSLRAEDMAVYYCARDYYGAGSFYDGLYGMDVWGQGTTVTVSSASTKGPSVFPLAPCSRSTSESTAALGCLVKDYFPEPVTVSWNSGALTSGVHTFPAVLQSSGLYSLSSVVTVPSSNFGTQTYTCNVDHKPSNTKVDKTVERKCCVECPPCPAPPVAGPSVFLFPPKPKDTLMISRTPEVTCVVVDVSHEDPEVQFNWYVDGVEVHNAKTKPREEQFNSTFRVVSVLTVVHQDWLNGKEYKCKVSNKGLPAPIEKTISKTKGQPRRPQVYTLPPSREEMTKNQVSLTCLVKGFYPSDIAVEWESNGQPENNYKTTPPMLDSDGSFFLYSKLTVDKSRWQQGNVFSCSVMHEALHNHYTQKKLSLSPGK
# light: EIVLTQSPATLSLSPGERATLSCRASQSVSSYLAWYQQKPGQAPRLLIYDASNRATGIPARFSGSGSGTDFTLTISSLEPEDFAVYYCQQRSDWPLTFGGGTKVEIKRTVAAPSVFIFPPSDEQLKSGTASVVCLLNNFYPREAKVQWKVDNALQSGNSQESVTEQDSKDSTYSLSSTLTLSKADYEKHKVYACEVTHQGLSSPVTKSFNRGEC
# B2: IgG2-11B8-E345R-S440K-N297A (antibody)
# heavy: B1 heavy with N301A
# light: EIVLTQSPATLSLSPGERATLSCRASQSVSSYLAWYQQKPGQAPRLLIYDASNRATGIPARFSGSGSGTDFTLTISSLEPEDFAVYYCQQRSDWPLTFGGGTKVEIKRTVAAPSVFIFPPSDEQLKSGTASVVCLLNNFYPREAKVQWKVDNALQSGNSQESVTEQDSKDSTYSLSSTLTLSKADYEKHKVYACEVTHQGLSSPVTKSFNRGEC
# B3: IgG4-11B8-E345R-S440K (antibody)
# heavy: EVQLVQSGGGLVHPGGSLRLSCTGSGFTFSYHAMHWVRQAPGKGLEWVSIIGTGGVTYYADSVKGRFTISRDNVKNSLYLQMNSLRAEDMAVYYCARDYYGAGSFYDGLYGMDVWGQGTTVTVSSASTKGPSVFPLAPCSRSTSESTAALGCLVKDYFPEPVTVSWNSGALTSGVHTFPAVLQSSGLYSLSSVVTVPSSSLGTKTYTCNVDHKPSNTKVDKRVESKYGPPCPSCPAPEFLGGPSVFLFPPKPKDTLMISRTPEVTCVVVDVSQEDPEVQFNWYVDGVEVHNAKTKPREEQFNSTYRVVSVLTVLHQDWLNGKEYKCKVSNKGLPSSIEKTISKAKGQPRRPQVYTLPPSQEEMTKNQVSLTCLVKGFYPSDIAVEWESNGQPENNYKTTPPVLDSDGSFFLYSRLTVDKSRWQEGNVFSCSVMHEALHNHYTQKKLSLSLGK
# light: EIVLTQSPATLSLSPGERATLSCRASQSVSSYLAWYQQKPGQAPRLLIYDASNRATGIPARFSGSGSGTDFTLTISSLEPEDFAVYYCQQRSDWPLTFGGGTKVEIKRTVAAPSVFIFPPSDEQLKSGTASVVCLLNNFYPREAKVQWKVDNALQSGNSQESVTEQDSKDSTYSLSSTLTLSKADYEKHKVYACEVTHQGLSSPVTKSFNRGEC
# B4: IgG4-11B8-E345R-S440K-N297A (antibody)
# heavy: B3 heavy with N302A
# light: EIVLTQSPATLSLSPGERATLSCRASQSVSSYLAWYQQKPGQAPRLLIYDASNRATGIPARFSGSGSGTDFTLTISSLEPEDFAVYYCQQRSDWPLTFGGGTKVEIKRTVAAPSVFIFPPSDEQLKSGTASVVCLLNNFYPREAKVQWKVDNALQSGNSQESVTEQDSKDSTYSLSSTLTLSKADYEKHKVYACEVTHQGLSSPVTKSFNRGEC
# B5: IgG2-CAMPATH-1H-E345R-K439E (antibody)
# heavy: QVQLQESGPGLVRPSQTLSLTCTVSGFTFTDFYMNWVRQPPGRGLEWIGFIRDKAKGYTTEYNPSVKGRVTMLVDTSKNQFSLRLSSVTAADTAVYYCAREGHTAAPFDYWGQGSLVTVSSASTKGPSVFPLAPCSRSTSESTAALGCLVKDYFPEPVTVSWNSGALTSGVHTFPAVLQSSGLYSLSSVVTVPSSNFGTQTYTCNVDHKPSNTKVDKTVERKCCVECPPCPAPPVAGPSVFLFPPKPKDTLMISRTPEVTCVVVDVSHEDPEVQFNWYVDGVEVHNAKTKPREEQFNSTFRVVSVLTVVHQDWLNGKEYKCKVSNKGLPAPIEKTISKTKGQPRRPQVYTLPPSREEMTKNQVSLTCLVKGFYPSDIAVEWESNGQPENNYKTTPPMLDSDGSFFLYSKLTVDKSRWQQGNVFSCSVMHEALHNHYTQESLSLSPGK
# light: not shown
# B6: IgG2-CAMPATH-1H-E345R-K439E-N297A (antibody)
# heavy: B5 heavy with N297A
# light: not shown
# B7: IgG4-CAMPATH-1H-E345R-K439E (antibody)
# heavy: QVQLQESGPGLVRPSQTLSLTCTVSGFTFTDFYMNWVRQPPGRGLEWIGFIRDKAKGYTTEYNPSVKGRVTMLVDTSKNQFSLRLSSVTAADTAVYYCAREGHTAAPFDYWGQGSLVTVSSASTKGPSVFPLAPCSRSTSESTAALGCLVKDYFPEPVTVSWNSGALTSGVHTFPAVLQSSGLYSLSSVVTVPSSSLGTKTYTCNVDHKPSNTKVDKRVESKYGPPCPSCPAPEFLGGPSVFLFPPKPKDTLMISRTPEVTCVVVDVSQEDPEVQFNWYVDGVEVHNAKTKPREEQFNSTYRVVSVLTVLHQDWLNGKEYKCKVSNKGLPSSIEKTISKAKGQPRRPQVYTLPPSQEEMTKNQVSLTCLVKGFYPSDIAVEWESNGQPENNYKTTPPVLDSDGSFFLYSRLTVDKSRWQEGNVFSCSVMHEALHNHYTQESLSLSLGK
# light: not shown
# B8: IgG4-CAMPATH-1H-E345R-K439E-N297A (antibody)
# heavy: B7 heavy with N298A
# light: not shown
# Molecular target: FcγRIIIa (V158 high affinity allotype) (UniProt P08637 17-254, limits assumed)
# Sequence (P08637 17-254 F176V limits assumed): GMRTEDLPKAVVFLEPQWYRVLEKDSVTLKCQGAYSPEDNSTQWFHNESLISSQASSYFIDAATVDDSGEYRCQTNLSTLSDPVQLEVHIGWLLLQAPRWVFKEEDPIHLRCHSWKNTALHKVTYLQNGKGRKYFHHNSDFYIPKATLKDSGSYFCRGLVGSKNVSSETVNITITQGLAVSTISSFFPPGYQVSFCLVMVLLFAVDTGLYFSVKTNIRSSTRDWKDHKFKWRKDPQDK
# Test: cell-based or functional assay
row,"FcγRIIIa activation, reporter cell assay, relative AUC, single agent",Binder
1,< 5 % of the level induced by the positive control mixture,B1
2,< 5 % of the level induced by the positive control mixture,B2
3,< 5 % of the level induced by the positive control mixture,B3
4,< 5 % of the level induced by the positive control mixture,B4
5,< 5 % of the level induced by the positive control mixture,B5
6,< 5 % of the level induced by the positive control mixture,B6
7,< 5 % of the level induced by the positive control mixture,B7
8,< 5 % of the level induced by the positive control mixture,B8
